Drawing on publication doi:10.1101/2023.11.01.565136, this text covers stoichiometry N for one molecule.

This assay concerns the target T1, Full-length human E6AP (E6-associated protein) (human), Q05086.
T1 chain: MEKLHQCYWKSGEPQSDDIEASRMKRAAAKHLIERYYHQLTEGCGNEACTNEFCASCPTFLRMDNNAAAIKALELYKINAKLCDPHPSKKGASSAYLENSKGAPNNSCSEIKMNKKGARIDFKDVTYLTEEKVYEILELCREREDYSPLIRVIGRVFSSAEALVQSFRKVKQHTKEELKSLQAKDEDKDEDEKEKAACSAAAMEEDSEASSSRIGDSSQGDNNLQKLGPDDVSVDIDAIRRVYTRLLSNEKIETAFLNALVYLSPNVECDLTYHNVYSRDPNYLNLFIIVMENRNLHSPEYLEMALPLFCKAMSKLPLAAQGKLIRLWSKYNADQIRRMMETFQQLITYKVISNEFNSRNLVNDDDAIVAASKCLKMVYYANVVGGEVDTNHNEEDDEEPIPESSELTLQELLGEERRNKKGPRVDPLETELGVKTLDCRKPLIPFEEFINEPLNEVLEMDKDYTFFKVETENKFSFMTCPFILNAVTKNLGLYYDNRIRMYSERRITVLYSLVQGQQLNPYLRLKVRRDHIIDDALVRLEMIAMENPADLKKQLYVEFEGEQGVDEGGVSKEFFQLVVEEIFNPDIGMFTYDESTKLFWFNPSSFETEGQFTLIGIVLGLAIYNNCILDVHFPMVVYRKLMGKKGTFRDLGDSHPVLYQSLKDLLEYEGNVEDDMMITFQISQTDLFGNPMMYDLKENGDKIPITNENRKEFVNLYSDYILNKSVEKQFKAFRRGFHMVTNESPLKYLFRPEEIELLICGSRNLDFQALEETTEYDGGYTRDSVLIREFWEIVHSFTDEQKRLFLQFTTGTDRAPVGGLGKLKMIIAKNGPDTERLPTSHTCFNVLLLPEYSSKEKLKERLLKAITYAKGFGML
Kind of assay: mass photometry. Particulars: remark: other sources report otherwise.

B1: Full-length human E6AP (E6-associated protein), Q05086 1-875 (enzyme)
chain: MEKLHQCYWKSGEPQSDDIEASRMKRAAAKHLIERYYHQLTEGCGNEACTNEFCASCPTFLRMDNNAAAIKALELYKINAKLCDPHPSKKGASSAYLENSKGAPNNSCSEIKMNKKGARIDFKDVTYLTEEKVYEILELCREREDYSPLIRVIGRVFSSAEALVQSFRKVKQHTKEELKSLQAKDEDKDEDEKEKAACSAAAMEEDSEASSSRIGDSSQGDNNLQKLGPDDVSVDIDAIRRVYTRLLSNEKIETAFLNALVYLSPNVECDLTYHNVYSRDPNYLNLFIIVMENRNLHSPEYLEMALPLFCKAMSKLPLAAQGKLIRLWSKYNADQIRRMMETFQQLITYKVISNEFNSRNLVNDDDAIVAASKCLKMVYYANVVGGEVDTNHNEEDDEEPIPESSELTLQELLGEERRNKKGPRVDPLETELGVKTLDCRKPLIPFEEFINEPLNEVLEMDKDYTFFKVETENKFSFMTCPFILNAVTKNLGLYYDNRIRMYSERRITVLYSLVQGQQLNPYLRLKVRRDHIIDDALVRLEMIAMENPADLKKQLYVEFEGEQGVDEGGVSKEFFQLVVEEIFNPDIGMFTYDESTKLFWFNPSSFETEGQFTLIGIVLGLAIYNNCILDVHFPMVVYRKLMGKKGTFRDLGDSHPVLYQSLKDLLEYEGNVEDDMMITFQISQTDLFGNPMMYDLKENGDKIPITNENRKEFVNLYSDYILNKSVEKQFKAFRRGFHMVTNESPLKYLFRPEEIELLICGSRNLDFQALEETTEYDGGYTRDSVLIREFWEIVHSFTDEQKRLFLQFTTGTDRAPVGGLGKLKMIIAKNGPDTERLPTSHTCFNVLLLPEYSSKEKLKERLLKAITYAKGFGML
In the case of B1, the stoichiometry N (in general, the number of molecules, sites or subunits per partner or assembly) worked out at 2.
